Reference: patent publication US20180273635A1 (Zymeworks, published 2018)

Experiments:
Recombinant human HER2 [1] = molecular target: T1, Recombinant human HER2 (human, UniProt P04626 23-652); assay: SPR, pre-SEC; ratio to WT v10013;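 further: SPR on Biacore T200 at 25 °C, constructs captured via anti-human Fc on CM5 chip, HER2 ECD as analyte, 1:1 Langmuir global fit, after protein A purification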
T1 construct: extracellular domain; analyte of the SPR assays; also called HER2 ECD; ECD2 of HER2
Protocol: (§1) The affinity towards HER2 ECD of the samples was measured by SPR on a Biacore T200 as follows. Between 2000 and 4000 RU of anti-human Fc injected at concentration between 5 and 10 μg/ml was immobilized on a CM5 chip using standard amine coupling. Antigen-binding constructs were captured on the anti-human Fc (injected at concentration at 0.51 microg/mL in PBST, 1 min at 10 microl/min) at response levels ranging from 120-270 RU. […] HER2 dilutions were analyzed in duplicates. Sensograms were fit globally to a 1: 1 Langmuir binding model, using the software provided with the Biacore T200. All experiments were conducted at 25° C.
(§2) The affinity of antigen-binding constructs in OA format was determined by SPR following protein A purification. […] Antigen-binding constructs in FSA format were purified by protein A affinity and SEC prior to assessment of affinity by SPR.

Recombinant human HER2 [2] = molecular target: T1, Recombinant human HER2; assay: SPR, variant captured on anti-human Fc, HER2 flowed, 25 C, pre-SEC;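 further: HER2 extracellular domain binding on Biacore T200, CM5 chip with amine-coupled anti-human Fc, duplicate antigen dilutions, global 1:1 Langmuir fit, measured after protein A purification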
Protocol: as §1, §2

Recombinant human HER2 [3] = molecular target: T2, Recombinant human HER2 (human, UniProt P04626 23-652); assay: SPR, Biacore T200, 25 C; variant captured on anti-human Fc, HER2 flowed;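 further: HER2 extracellular domain analyte run as duplicate dilutions over amine-coupled anti-Fc on a CM5 chip, rates from global sensorgram fitting with a 1:1 Langmuir model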
T2 construct: extracellular domain; Analyte of the SPR assays; also called HER2 ECD; ECD2 of HER2
Protocol: as §1

| Ka, mut/Ka, WT (Recombinant human HER2 [1]) | Kd (Recombinant human HER2 [2]) | Kd (Recombinant human HER2 [3]) | koff (Recombinant human HER2 [3]) | kon (Recombinant human HER2 [3]) | Binder |
| --- | --- | --- | --- | --- | --- |
| 0.9 | 23 nM | – | – | – | variant 12477 (antibody, human IgG1, kappa, OA pertuzumab variant, HC T30R (Kabat); also called v12477) heavy: EVQLVESGGGLVQPGGSLRLSCAASGFTFRDYTMDWVRQAPGKGLEWVADVNPNSGGSIYNQRFKGRFTLSVDRSKNTLYLQMNSLRAEDTAVYYCARNLGPSFYFDYWGQGTLVTVSSASTKGPSVFPLAPSSKSTSGGTAALGCLVKDYFPEPVTVSWNSGALTSGVHTFPAVLQSSGLYSLSSVVTVPSSSLGTQTYICNVNHKPSNTKVDKKVEPKSCDKTHTCPPCPAPELLGGPSVFLFPPKPKDTLMISRTPEVTCVVVDVSHEDPEVKFNWYVDGVEVHNAKTKPREEQYNSTYRVVSVLTVLHQDWLNGKEYKCKVSNKALPAPIEKTISKAKGQPREPQVYVYPPSRDELTKNQVSLTCLVKGFYPSDIAVEWESNGQPENNYKTTPPVLDSDGSFALVSKLTVDKSRWQQGNVFSCSVMHEALHNHYTQKSLSLSPG light: not shown not shown |
| 0.1 | 310 nM | – | – | – | variant 12481 (antibody, human IgG1, kappa, OA pertuzumab variant, HC T30K (Kabat); also called v12481) heavy: EVQLVESGGGLVQPGGSLRLSCAASGFTFKDYTMDWVRQAPGKGLEWVADVNPNSGGSIYNQRFKGRFTLSVDRSKNTLYLQMNSLRAEDTAVYYCARNLGPSFYFDYWGQGTLVTVSSASTKGPSVFPLAPSSKSTSGGTAALGCLVKDYFPEPVTVSWNSGALTSGVHTFPAVLQSSGLYSLSSVVTVPSSSLGTQTYICNVNHKPSNTKVDKKVEPKSCDKTHTCPPCPAPELLGGPSVFLFPPKPKDTLMISRTPEVTCVVVDVSHEDPEVKFNWYVDGVEVHNAKTKPREEQYNSTYRVVSVLTVLHQDWLNGKEYKCKVSNKALPAPIEKTISKAKGQPREPQVYVYPPSRDELTKNQVSLTCLVKGFYPSDIAVEWESNGQPENNYKTTPPVLDSDGSFALVSKLTVDKSRWQQGNVFSCSVMHEALHNHYTQKSLSLSPG light: not shown not shown |
| 0.4 | 44 nM | – | – | – | variant 12487 (antibody, human IgG1, kappa, OA pertuzumab variant, HC G56K (Kabat); also called v12487) heavy: EVQLVESGGGLVQPGGSLRLSCAASGFTFTDYTMDWVRQAPGKGLEWVADVNPNSGKSIYNQRFKGRFTLSVDRSKNTLYLQMNSLRAEDTAVYYCARNLGPSFYFDYWGQGTLVTVSSASTKGPSVFPLAPSSKSTSGGTAALGCLVKDYFPEPVTVSWNSGALTSGVHTFPAVLQSSGLYSLSSVVTVPSSSLGTQTYICNVNHKPSNTKVDKKVEPKSCDKTHTCPPCPAPELLGGPSVFLFPPKPKDTLMISRTPEVTCVVVDVSHEDPEVKFNWYVDGVEVHNAKTKPREEQYNSTYRVVSVLTVLHQDWLNGKEYKCKVSNKALPAPIEKTISKAKGQPREPQVYVYPPSRDELTKNQVSLTCLVKGFYPSDIAVEWESNGQPENNYKTTPPVLDSDGSFALVSKLTVDKSRWQQGNVFSCSVMHEALHNHYTQKSLSLSPG light: not shown not shown |
| 0.6 | 30 nM | – | – | – | variant 12488 (antibody, human IgG1, kappa, OA pertuzumab variant, HC G56R (Kabat); also called v12488) heavy: EVQLVESGGGLVQPGGSLRLSCAASGFTFTDYTMDWVRQAPGKGLEWVADVNPNSGRSIYNQRFKGRFTLSVDRSKNTLYLQMNSLRAEDTAVYYCARNLGPSFYFDYWGQGTLVTVSSASTKGPSVFPLAPSSKSTSGGTAALGCLVKDYFPEPVTVSWNSGALTSGVHTFPAVLQSSGLYSLSSVVTVPSSSLGTQTYICNVNHKPSNTKVDKKVEPKSCDKTHTCPPCPAPELLGGPSVFLFPPKPKDTLMISRTPEVTCVVVDVSHEDPEVKFNWYVDGVEVHNAKTKPREEQYNSTYRVVSVLTVLHQDWLNGKEYKCKVSNKALPAPIEKTISKAKGQPREPQVYVYPPSRDELTKNQVSLTCLVKGFYPSDIAVEWESNGQPENNYKTTPPVLDSDGSFALVSKLTVDKSRWQQGNVFSCSVMHEALHNHYTQKSLSLSPG light: not shown not shown |

The next lines start with the binder.

| Binder | Ka, mut/Ka, WT (Recombinant human HER2 [1]) | Kd (Recombinant human HER2 [2]) | Kd (Recombinant human HER2 [3]) | koff (Recombinant human HER2 [3]) | kon (Recombinant human HER2 [3]) |
| --- | --- | --- | --- | --- | --- |
| variant 12475 (antibody, human IgG1, kappa, one-armed (OA) pertuzumab variant, HC T28R (Kabat); also called v12475) heavy: EVQLVESGGGLVQPGGSLRLSCAASGFRFTDYTMDWVRQAPGKGLEWVADVNPNSGGSIYNQRFKGRFTLSVDRSKNTLYLQMNSLRAEDTAVYYCARNLGPSFYFDYWGQGTLVTVSSASTKGPSVFPLAPSSKSTSGGTAALGCLVKDYFPEPVTVSWNSGALTSGVHTFPAVLQSSGLYSLSSVVTVPSSSLGTQTYICNVNHKPSNTKVDKKVEPKSCDKTHTCPPCPAPELLGGPSVFLFPPKPKDTLMISRTPEVTCVVVDVSHEDPEVKFNWYVDGVEVHNAKTKPREEQYNSTYRVVSVLTVLHQDWLNGKEYKCKVSNKALPAPIEKTISKAKGQPREPQVYVYPPSRDELTKNQVSLTCLVKGFYPSDIAVEWESNGQPENNYKTTPPVLDSDGSFALVSKLTVDKSRWQQGNVFSCSVMHEALHNHYTQKSLSLSPG light: not shown not shown | 0.4 | 45 nM | – | – | – |
| variant 12476 (antibody, human IgG1, kappa, OA pertuzumab variant, HC T28K (Kabat); also called v12476) heavy: EVQLVESGGGLVQPGGSLRLSCAASGFKFTDYTMDWVRQAPGKGLEWVADVNPNSGGSIYNQRFKGRFTLSVDRSKNTLYLQMNSLRAEDTAVYYCARNLGPSFYFDYWGQGTLVTVSSASTKGPSVFPLAPSSKSTSGGTAALGCLVKDYFPEPVTVSWNSGALTSGVHTFPAVLQSSGLYSLSSVVTVPSSSLGTQTYICNVNHKPSNTKVDKKVEPKSCDKTHTCPPCPAPELLGGPSVFLFPPKPKDTLMISRTPEVTCVVVDVSHEDPEVKFNWYVDGVEVHNAKTKPREEQYNSTYRVVSVLTVLHQDWLNGKEYKCKVSNKALPAPIEKTISKAKGQPREPQVYVYPPSRDELTKNQVSLTCLVKGFYPSDIAVEWESNGQPENNYKTTPPVLDSDGSFALVSKLTVDKSRWQQGNVFSCSVMHEALHNHYTQKSLSLSPG light: not shown not shown | 0.3 | 61 nM | – | – | – |
| variant 12486 (antibody, human IgG1, kappa, OA pertuzumab variant, HC S54H (Kabat); also called v12486) heavy: EVQLVESGGGLVQPGGSLRLSCAASGFTFTDYTMDWVRQAPGKGLEWVADVNPNHGGSIYNQRFKGRFTLSVDRSKNTLYLQMNSLRAEDTAVYYCARNLGPSFYFDYWGQGTLVTVSSASTKGPSVFPLAPSSKSTSGGTAALGCLVKDYFPEPVTVSWNSGALTSGVHTFPAVLQSSGLYSLSSVVTVPSSSLGTQTYICNVNHKPSNTKVDKKVEPKSCDKTHTCPPCPAPELLGGPSVFLFPPKPKDTLMISRTPEVTCVVVDVSHEDPEVKFNWYVDGVEVHNAKTKPREEQYNSTYRVVSVLTVLHQDWLNGKEYKCKVSNKALPAPIEKTISKAKGQPREPQVYVYPPSRDELTKNQVSLTCLVKGFYPSDIAVEWESNGQPENNYKTTPPVLDSDGSFALVSKLTVDKSRWQQGNVFSCSVMHEALHNHYTQKSLSLSPG light: not shown not shown | 0.2 | 92 nM | – | – | – |
| variant 12492 (antibody, human IgG1, kappa, OA pertuzumab variant, HC G56W (Kabat); also called v12492) heavy: EVQLVESGGGLVQPGGSLRLSCAASGFTFTDYTMDWVRQAPGKGLEWVADVNPNSGWSIYNQRFKGRFTLSVDRSKNTLYLQMNSLRAEDTAVYYCARNLGPSFYFDYWGQGTLVTVSSASTKGPSVFPLAPSSKSTSGGTAALGCLVKDYFPEPVTVSWNSGALTSGVHTFPAVLQSSGLYSLSSVVTVPSSSLGTQTYICNVNHKPSNTKVDKKVEPKSCDKTHTCPPCPAPELLGGPSVFLFPPKPKDTLMISRTPEVTCVVVDVSHEDPEVKFNWYVDGVEVHNAKTKPREEQYNSTYRVVSVLTVLHQDWLNGKEYKCKVSNKALPAPIEKTISKAKGQPREPQVYVYPPSRDELTKNQVSLTCLVKGFYPSDIAVEWESNGQPENNYKTTPPVLDSDGSFALVSKLTVDKSRWQQGNVFSCSVMHEALHNHYTQKSLSLSPG light: not shown not shown | 1.1 | 17 nM | – | – | – |
| Variant 14052 (antibody, human IgG1, kappa, OA (one-armed) format; clones 7852, 8781, 4372; also called v14052) heavy: EVQLVESGGGLVQPGGSLRLSCAASGFTFTDYTMDWVRQAPGKGLEWVADVNPNSGGSIYNQRFKGRFTLSVDRSKNTLYLQMNSLRAEDTAVYYCARNLGPWFYFDYWGQGTLVTVSSASTKGPSVFPLAPSSKSTSGGTAALGCLVKDYFPEPVTVSWNSGALTSGVHTFPAVLQSSGLYSLSSVVTVPSSSLGTQTYICNVNHKPSNTKVDKKVEPKSCDKTHTCPPCPAPELLGGPSVFLFPPKPKDTLMISRTPEVTCVVVDVSHEDPEVKFNWYVDGVEVHNAKTKPREEQYNSTYRVVSVLTVLHQDWLNGKEYKCKVSNKALPAPIEKTISKAKGQPREPQVYVYPPSRDELTKNQVSLTCLVKGFYPSDIAVEWESNGQPENNYKTTPPVLDSDGSFALVSKLTVDKSRWQQGNVFSCSVMHEALHNHYTQKSLSLSPG light: not shown not shown | – | – | 55 nM | 0.0053 s⁻¹ | 97000 M⁻¹ s⁻¹ |
